Legend:
Details in all cases: remark: other sources report otherwise
[1] = molecular target: receptor-binding domain (RBD) of the SARS-CoV-2 spike (S) glycoprotein (SARS-CoV-2), P0DTC2
[2] = molecular target: T1, SARS-CoV-2 spike receptor-binding domain (RBD) (SARS-CoV-2), P0DTC2; assay: indirect ELISA, RBD coated on plate, 4PL fit
[3] = molecular target: T1, SARS-CoV-2 spike receptor-binding …; assay: SPR (Biacore 3000), RBD immobilised, Nb as analyte, 1:1 Langmuir fit

B1: Nb17 (VHH)
VHH: HVQLVESGGGLVQAGGSLRLSCAASGSIFSSNAMSWYRQAPGKQRELVASITSGGNADYADSVKGRFTISRDKNTVYPEMSSLKPADTAVYYCHAVGQEASAYAPRAYWGQGTQVTVSS
For B1, the Buried surface area [1] was 921 Å^2 and the ELISA affinity [2] was 0.45 nM.

B2: Nb21 (VHH)
VHH: QVQLVESGGGLVQAGGSLRLSCAVSGLGAHRVGWFRRAPGKEREFVAAIGANGGNTNYLDSVKGRFTISRDNAKNTIYLQMNSLKPQDTAVYYCAARDIETAEYTYWGQGTQVTVSS
For B2, the Buried surface area [1] was 850 Å^2, the Kd [3] was under 1 pM and the koff [3] was under 1e-06 s⁻¹. For the same binder, the kon [3] was 3.79e+06 M⁻¹ s⁻¹ and the ELISA affinity [2] was 0.3 nM.

Source: US20240043505A1
